Results reported in patent US20110262366A1.
No end group written: not given here.

How the values were obtained:
[1] = target: endothelial cell receptor on HAEC (human aortic endothelial cells); test: competition, 10 µM free TKPPR against 1% BRU-292 microbubbles (competitor) on HAEC, static
[2] = target: endothelial cell receptor on HAEC (human aortic endothelial cells); test: competition, 200 µM free TKPPR against 5% BRU-114 microbubbles (competitor) on HAEC, static
[3] = target: endothelial cell receptor on HAEC (human aortic endothelial cells); test: competition, 10 µM free TKPPR against 1% DPPE-GTKPPR microbubbles (competitor) on HAEC, static
[4] = target: endothelial cell receptor on HAEC (human aortic endothelial cells); test: competition, 10 µM free TKPPR against 10% BRU-114 microbubbles (competitor) on HAEC, static
[5] = target: endothelial cell receptor on HAEC (human aortic endothelial cells); test: competition, 50 µM free TKPPR against TKPPR-beads (competitor) on HAEC, static, n = 11
[6] = target: endothelial cell receptor on HAEC (human aortic endothelial cells); test: competition, 10 µM free TKPPR against 5% BRU-114 microbubbles (competitor) on HAEC, static
[7] = target: endothelial cell receptor on HAEC (human aortic endothelial cells); test: competition, 50 µM free TKPPR against 5% BRU-114 microbubbles (competitor) on HAEC, static
[8] = target: endothelial cell receptor on HAEC (human aortic endothelial cells); test: competition, 25 µM free TKPPR against 2% BRU-114 microbubbles (competitor) on HAEC, static
[9] = target: endothelial cell receptor on HAEC (human aortic endothelial cells); test: competition, 2.5 µM free TKPPR against 1% BRU-292 microbubbles (competitor) on HAEC, static
[10] = target: endothelial cell receptor on HAEC (human aortic endothelial cells); test: competition, 2.5 µM free TKPPR against 1% BRU-114 microbubbles (competitor) on HAEC, static
[11] = target: endothelial cell receptor on HAEC (human aortic endothelial cells); test: competition, 50 µM free TKPPR against 10% BRU-114 microbubbles (competitor) on HAEC, static
[12] = target: endothelial cell receptor on HAEC (human aortic endothelial cells); test: competition, 50 µM free TKPPR against 1% DPPE-GTKPPR microbubbles (competitor) on HAEC, static
[13] = target: endothelial cell receptor on HAEC (human aortic endothelial cells); test: competition, 100 µM free TKPPR against 1% BRU-114 microbubbles (competitor) on HAEC, static

Bubbles Bound in presence of competitor [1]: 833 bubbles
Bubbles Bound in presence of competitor [2]: 13 bubbles
Average % Inhibition [3]: 79.6%
Bubbles Bound in presence of competitor [4]: 1090 bubbles
% Inhibition [5]: 50.5%
Bubbles Bound in presence of competitor [6]: 1340 bubbles
Bubbles Bound in presence of competitor [7]: 440 bubbles
Bubbles Bound % (of control binding) [8]: 16 % of control
Bubbles Bound in presence of competitor [9]: 888 bubbles
Bubbles Bound in presence of competitor [10]: 1240 bubbles
Bubbles Bound in presence of competitor [11]: 857 bubbles
Average % Inhibition [12]: 92.7%
Bubbles Bound in presence of competitor [13]: 4 bubbles
Binder: TKPPR-OH [TKPPR-OH (L-threonyl-L-lysyl-L-prolyl-L-prolyl-L-arginine)]
